Results published in paper PMC5686756, “IKKγ-Mimetic Peptides Block the Resistance to Apoptosis Associated with Kaposi's Sarcoma-Associated Herpesvirus Infection” (Journal of Virology, 2017).
Positions of bridges follow the written chain, without caps; N, C: chain ends. Non-standard residues stand in square brackets, D forms with d. No end group written: not given here. S5 = C=CCCC[C@](C)(N)C(=O)O

Tests used:
[1] = target: T1, GB1-tagged ks-vFLIP (residues 1 to 188) (Kaposi's sarcoma-associated herpesvirus …, UniProt Q76RF1 1-188); test: ITC; IKKγ(150–272) (~85-100 μM, syringe) titrated into GB1-vFLIP (~8-10 μM, cell); deionized water, 4% DMSO, 25°C; one-site model; apparent; details: both partners purified
T1 construct: KSHV vFLIP (ks-vFLIP), residues 1 to 188, cloned into GB1-pBR22b (modified pET22b); GB1 is the streptococcal protein G immunoglobulin domain fusion tag; also called GB1–ks-vFLIP; GB1-vFLIP; source: E. coli BL21(DE3), purified (His-trap, Superdex S75 size exclusion); not shown: GB1, N-terminal, kept

[2] = target: T1, GB1-tagged ks-vFLIP (residues 1 to 188); test: ITC; competition: GB1–ks-vFLIP first incubated with 20 μM spIKKγ and 4% DMSO, then titrated with IKKγ(150–272); deionized water, 25°C; apparent; details: both partners purified

Binder	Kd [1]	apparent Kd in the presence of spIKKγ (20 μM) [2]	Ki [2]
IKKγ fragment encompassing residues 150 to 272 (domain or fragment, UniProt Q9Y6K9 150-272, looked up, also called IKKγ(150–272); NEMO) LGELQESQSRLEAATKECQALEGRARAASEQARQLESEREALQQQHSVQVDQLRMQGQSVEAALRMERQAASEEKRKLAQLQVAYHQLFQEYDNHIKSSVVGSERKRGMQLEDLKQQLQQAEE	380 nM	30000 nM	
LQVAYH[S5]LFQ[S5]YDNHIKSSC (staple 7-11) [spIKKγ, conformationally constrained stapled 20-mer peptide of the IKKγ minimal interacting motif (L]			257 nM
